In test [1] the target is alpha-synuclein oligomers (UniProt P37840). The experiment in a line: ELISA on antigen-coated plate, antibody titrated in tenfold steps, OD 450-630 nm. (An ELISA detects its analyte on a solid surface through an enzyme-linked reagent.)
The target in another test is alpha-synuclein fibrils (UniProt P37840). The description is as above.
Another test deals with alpha-synuclein monomers (UniProt P37840). The test is described as above.
In test [2] the target is alpha-synuclein oligomers (UniProt P37840). The experiment in a line: ELISA, alpha-Syn oligomer coated plate, exp 1.
Test [3] has the same target. The experiment in a line: ELISA, alpha-Syn oligomer coated plate, exp 2.
Test [4] shares this target. The experiment in a line: ELISA, alpha-Syn oligomer coated plate, exp 3.
For test [5] the target is unchanged. The experiment in a line: ELISA, ratio of EC50 values, reference alpha-Syn fibrils (FIG. 3).
Test [6] shares this target. The experiment in a line: ELISA (Example 3), reference antibody 26F1.

pEC50: −log10 of the molar value.

The values that follow come from patent publication US20230151089A1.

What is called EC50 (read off the curve) is the concentration giving half of the maximal effect. High values mean a less potent agent, low ones a more potent agent. One may read the pEC50 as the negative decadic logarithm of the EC50, by convention in mol/L. As to MJFR14 antibody, the EC50 (read off the curve) (in test [1]; in the test with alpha-synuclein fibrils; in the test with alpha-synuclein monomers) was 20 pM each time. Besides, the values for the pEC50 in test [2], in test [3] and in test [4] were 10.22, 10.22 and 9.85, respectively. The binding affinity ratio alpha-Syn oligomers:alpha-Syn fibrils in test [5] is 1.
In the case of 5G4 antibody, the pEC50 in test [2] is 9.70; in test [3] it was 9.22; in test [4], 9.22. This substance had a fold weaker binding affinity to alpha-Syn oligomers than 26F1 in test [6] greater than 2 fold.
